# Patent US20150368625A1 (MIT, published 2015)
# B1: T7 sigma-like fragment with 601 split + SZ18 (other)
# chain: MSIAATLENDLARLENENARLEKDIANLERDLAKLEREEAYFGGSGGKNTGEISEKVKLGTKALAGQWLAYGVTRSVTKSSVMTLAYGSKEFGFRQQVLEDTIQPAIDSGKGLMFTQPNQAAGYMAKLIWESVSVTVVAAVEAMNWLKSAAKLLAAEVKDKKTGEILRKRCAVHWVTPDGFPVWQEYKKPIQTRLNLMFLGQFRLQPTINTNKDSEIDAHKQESGIAPNFVHSQDGSHLRKTVVWAHEKYGIESFALIHDSFGTIPADAANLFKAVRETMVDTYESCDVLADFYDQFADQLHESQLDKMPALPAKGNLNLRDILESDFAFA
# notes: also called T7 fragment; variable fragment
# B2: T3 sigma-like fragment with 601 split + SZ18 (other)
# chain: MSIAATLENDLARLENENARLEKDIANLERDLAKLEREEAYFGGSGGKNTGEISEKVKLGTKALAGQWLAYGVTRSVTKRSVMTLAYGSKEFGFRQQVLEDTIQPAIDSGKGLMFTQPNQAAGYMAKLIWESVSVTVVAAVEAMNWLKSAAKLLAAEVKDKKTGEILRKRCAVHWVTPDGFPVWQEYKKPIQKRLDMIFLGQFRLQPTINTNKDSEIDAHKQESGIAPNFVHSQDGSHLRKTVVWAHEKYGIESFALIHDSFGTIPADAANLFKAVRETMVDTYESCDVLADFYDQFADQLHESQLDKMPALPAKGNLNLRDILESDFAFA
# notes: also called T3 fragment; T3 sigma factor
# B3: K1FR sigma-like fragment with 601 split + SZ18 (other)
# chain: MSIAATLENDLARLENENARLEKDIANLERDLAKLEREEAYFGGSGGKNTGEISEKVKLGTKALAGQWLAYGVTRSVTKRSVMTLAYGSKEFGFRQQVLEDTIQPAIDSGKGLMFTQPNQAAGYMAKLIWESVSVTVVAAVEAMNWLKSAAKLLAAEVKDKKTGEILRKRCAVHWVTPDGFPVWQEYKKPIQTRLNLRFLGSFNLQPTVNTNKDSEIDAHKQESGIAPNFVHSQDGSHLRKTVVWAHEKYGIESFALIHDSFGTIPADAANLFKAVRETMVDTYESCDVLADFYDQFADQLHESQLDKMPALPAKGNLNLRDILESDFAFA
# Target: T1, Core fragment with 601 split + SZ17 (Bacteriophage T7, UniProt P00573 1-601)
# T1 construct: Expressed constitutively in cells from a single copy plasmid, not purified; also called conserved fragment; 1-601 fragment
# T1 sequence (P00573 1-601, tags or fused parts left off): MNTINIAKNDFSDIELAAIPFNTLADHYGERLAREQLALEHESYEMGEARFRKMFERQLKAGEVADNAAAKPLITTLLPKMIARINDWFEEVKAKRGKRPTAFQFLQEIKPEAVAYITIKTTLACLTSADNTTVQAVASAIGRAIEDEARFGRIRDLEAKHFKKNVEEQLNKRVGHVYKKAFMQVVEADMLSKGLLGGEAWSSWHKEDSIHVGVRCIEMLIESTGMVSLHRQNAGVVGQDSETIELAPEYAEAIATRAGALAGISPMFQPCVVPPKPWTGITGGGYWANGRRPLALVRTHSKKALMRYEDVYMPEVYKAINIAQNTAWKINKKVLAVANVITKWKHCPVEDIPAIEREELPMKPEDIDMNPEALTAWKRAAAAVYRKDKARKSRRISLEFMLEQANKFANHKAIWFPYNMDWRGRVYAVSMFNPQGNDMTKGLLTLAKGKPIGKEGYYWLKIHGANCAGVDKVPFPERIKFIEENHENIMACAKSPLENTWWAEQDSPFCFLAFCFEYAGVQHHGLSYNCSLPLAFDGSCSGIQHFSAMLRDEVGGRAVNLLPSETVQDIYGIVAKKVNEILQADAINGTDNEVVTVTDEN
# Assay: reporter assay in cells: core at a constant level, sigma-like fragment induced, promoter->sfgfp read by flow cytometry
# Experimental: Cells containing the three test plasmids (constitutive expression of core, promoter->sfgfp reporter, and pTac->sigma-like fragment) were inoculated into 0.5 mL LB+antibiotics and grown to saturation overnight. The overnight cultures were diluted 1:200 into 0.15 mL LB+antibiotics+100 μM IPTG and grown at 37° C., 1000 rpm for 6 hours. The fluorescence of the cells was quantified using a flow cytometer (FIG. 8). The assay was performed on three separate days, with three technical replicates per day. Data shown is the average value over all three days, with error bars representing the standard deviation between the mean values on each day.
row,Binder,binding result
1,B1,binds
2,B2,binds
3,B3,binds
